Patent US20220411483A1 (Chugai, published 2022)
Numbering of substitutions follows the chain as printed. Blank lines part the entries; values can stand above or below the binder they belong to.

Key:
[1] = target: T1, FcγRIIa R type extracellular domain, His tag (human, UniProt P12318 34-217); assay: SPR, bound amount per captured antibody
T1 construct: extracellular domain; also called FcgRIIaR
T1 sequence (looked up): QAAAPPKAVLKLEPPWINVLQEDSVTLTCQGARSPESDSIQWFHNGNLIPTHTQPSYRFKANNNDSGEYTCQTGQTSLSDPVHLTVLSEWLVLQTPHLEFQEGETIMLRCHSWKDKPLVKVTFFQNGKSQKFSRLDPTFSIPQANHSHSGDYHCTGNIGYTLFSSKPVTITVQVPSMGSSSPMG

[2] = target: T2, FcγRIIb extracellular domain, His tag (human, UniProt P31994 43-217); assay: SPR, bound amount per captured antibody
T2 construct: extracellular domain; also called FcgRIIb
T2 sequence (looked up): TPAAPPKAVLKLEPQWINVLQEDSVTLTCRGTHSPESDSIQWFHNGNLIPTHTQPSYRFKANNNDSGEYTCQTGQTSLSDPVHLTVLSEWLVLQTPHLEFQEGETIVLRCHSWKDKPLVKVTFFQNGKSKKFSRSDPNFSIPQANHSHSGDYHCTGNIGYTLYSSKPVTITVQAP

[3] = target: T3, FcγRIIa R type extracellular domain with C-terminal His tag (human, UniProt P12318 34-217); assay: SPR; amount bound divided by amount of IL6R-F652/IL6R-L bound, x100
T3 construct: extracellular domain; also called FcgRIIaR; not shown: His tag at the C terminus
T3 sequence (looked up): T1 sequence (looked up)

[4] = target: T4, FcγRIIb extracellular domain with C-terminal His tag (human, UniProt P31994 43-217); assay: as above
T4 construct: extracellular domain; also called FcgRIIb; not shown: His tag at the C terminus
T4 sequence (looked up): T2 sequence (looked up)

[5] = target: T5, FcγRIa extracellular domain with C-terminal His tag (human, UniProt P12314 16-292); assay: SPR (Biacore), FcgR as analyte
T5 construct: also called FcgRIa
T5 sequence (P12314 16-292): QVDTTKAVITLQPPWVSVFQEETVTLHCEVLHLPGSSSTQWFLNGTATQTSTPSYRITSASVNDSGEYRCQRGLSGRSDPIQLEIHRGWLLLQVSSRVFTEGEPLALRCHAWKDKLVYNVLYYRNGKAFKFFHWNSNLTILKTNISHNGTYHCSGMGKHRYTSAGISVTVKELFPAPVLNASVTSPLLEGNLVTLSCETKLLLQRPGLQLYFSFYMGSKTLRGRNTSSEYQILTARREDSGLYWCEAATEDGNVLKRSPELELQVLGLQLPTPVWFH

[6] = target: T6, FcγRIIa R type extracellular domain with C-terminal His tag (human, UniProt P12318 34-217); assay: SPR (Biacore), FcgR as analyte
T6 construct: extracellular domain; also called FcgRIIaR
T6 sequence (looked up): T1 sequence (looked up)

[7] = target: T7, FcγRIIb extracellular domain with C-terminal His tag (human, UniProt P31994 43-217); assay: SPR (Biacore), FcgR as analyte
T7 construct: extracellular domain; also called FcgRIIb
T7 sequence (looked up): T2 sequence (looked up)

B1: IL6R-2B154/IL6R-L (antibody, human IgG1, kappa)
heavy: QVQLQESGPGLVKPSETLSLTCAVSGHSISHDHAWSWVRQPPGEGLEWIGFISYSGITNYNPSLQGRVTISRDNSKNTLYLQMNSLRAEDTAVYYCARSLARTTAMDYWGEGTLVTVSSASTKGPSVFPLAPSSKSTSGGTAALGCLVKDYFPEPVTVSWNSGALTSGVHTFPAVLQSSGLYSLSSVVTVPSSSLGTQTYICNVNHKPSNTKVDKKVEPKSCDKTHTCPPCPAPELLGGDSVFLFPPKPKDTLMISRTPEVTCVVVDVSHEDPEVKFNWYVDGVEVHNAKTKPREEQYNMTYRVVSVLTVLHQDWLNGKEYKCKVSNKALPAPIEKTISKAKGQPREPQVYTLPPSRDELTKNQVSLTCLVKGFYPSDIAVEWESNGQPENNYKTTPPVLDSDGSFFLYSKLTVDKSRWQQGNVFSCSVMHEALHNHYTQESLSLSP
light: not shown
Relative FcgRIIaR-binding Activity [1]: 77.5 % of IL6R-BF648/IL6R-L
Relative FcgRIIb-binding Activity [2]: 79.4 % of IL6R-BF648/IL6R-L

B3: IL6R-2B169/IL6R-L (antibody, human IgG1, kappa)
heavy: B1 heavy with M300S, V325I
light: not shown
Relative FcgRIIaR-binding Activity [1]: 90.8 % of IL6R-BF648/IL6R-L
Relative FcgRIIb-binding Activity [2]: 103 % of IL6R-BF648/IL6R-L

B4: IL6R-BP187/IL6R-L (antibody, human IgG1, kappa, name in EU numbering)
heavy: B1 heavy with L236Y, P273G, M300S, K328A, A332K
light: not shown
notes: IgG1; alterations on IL6R-B3, EU numbering
Kd [5]: 25 nM
Kd [6]: 2800 nM

B5: IL6R-BP130/IL6R-L (antibody, human IgG1, kappa, name in EU numbering)
heavy: B1 heavy with E235D, M300S, V325M, A332K
light: not shown
notes: as for B4
Kd [7]: 300 nM

B6: IL6R-2B137/IL6R-L (antibody, human IgG1, kappa)
heavy: B1 heavy with Y298N, M300S
light: not shown
Relative FcgRIIaR-binding Activity [1]: 77.7 % of IL6R-BF648/IL6R-L
Relative FcgRIIb-binding Activity [2]: 98.3 % of IL6R-BF648/IL6R-L

B11: IL6R-2B124/IL6R-L (antibody, human IgG1, kappa)
heavy: B1 heavy with Q297V, M300S
light: not shown
Relative FcgRIIaR-binding Activity [1]: 65.2 % of IL6R-BF648/IL6R-L
Relative FcgRIIb-binding Activity [2]: 72.9 % of IL6R-BF648/IL6R-L

B12: IL6R-2B128/IL6R-L (antibody, human IgG1, kappa)
heavy: B1 heavy with Y298D, M300S
light: not shown
Relative FcgRIIaR-binding Activity [1]: 88.1 % of IL6R-BF648/IL6R-L
Relative FcgRIIb-binding Activity [2]: 102 % of IL6R-BF648/IL6R-L

B13: IL6R-2B132/IL6R-L (antibody, human IgG1, kappa)
heavy: B1 heavy with Y298H, M300S
light: not shown
Relative FcgRIIaR-binding Activity [1]: 66.9 % of IL6R-BF648/IL6R-L
Relative FcgRIIb-binding Activity [2]: 89.1 % of IL6R-BF648/IL6R-L

B15: IL6R-2B261/IL6R-L (antibody, human IgG1, kappa, name in EU numbering)
heavy: B1 heavy with E235D, Y298D, M300S
light: not shown
notes: as for B4
Kd [5]: 9 nM
Kd [7]: 1000 nM

B17: IL6R-2B145/IL6R-L (antibody, human IgG1, kappa)
heavy: B1 heavy with M300A
light: not shown
Relative FcgRIIaR-binding Activity [1]: 45.1 % of IL6R-BF648/IL6R-L
Relative FcgRIIb-binding Activity [2]: 55.5 % of IL6R-BF648/IL6R-L

The next lines start with the values.

Relative FcgRIIaR-binding Activity [3]: 7.8
Relative FcgRIIb-binding Activity [4]: 5.4
B2: IL6R-PD038/IL6R-L (antibody, human IgG1, kappa)
heavy: B1 heavy with L236R, M254Y, M300S, N436Y, E441K
light: not shown
notes: human IgG1

Kd [5]: 4 nM
Kd [6]: 3000 nM
B7: IL6R-BP191/IL6R-L (antibody, human IgG1, kappa, name in EU numbering)
heavy: B1 heavy with E235D, H270D, P273G, M300S, K328A, A332K
light: not shown
notes: as for B4

Kd [7]: 200 nM
B8: IL6R-BP206/IL6R-L (antibody, human IgG1, kappa, name in EU numbering)
heavy: B1 heavy with E235D, P273G, M300S, A332R
light: not shown
notes: as for B4

Relative FcgRIIaR-binding Activity [3]: 11.2
Relative FcgRIIb-binding Activity [4]: 6.2
B9: IL6R-PD033/IL6R-L (antibody, human IgG1, kappa)
heavy: B1 heavy with L236K, M254Y, M300S, N436Y, E441K
light: not shown
notes: human IgG1

Kd [7]: 100 nM
B10: IL6R-BP237/IL6R-L (antibody, human IgG1, kappa, name in EU numbering)
heavy: B1 heavy with E235D, L236Y, G239D, S269Q, H270D, P273G, Y298D, M300S, K328A, A332K
light: not shown
notes: as for B4

Relative FcgRIIaR-binding Activity [3]: 0.5
Relative FcgRIIb-binding Activity [4]: 11.8
B14: IL6R-PD085/IL6R-L (antibody, human IgG1, kappa)
heavy: B1 heavy with G239K, M254Y, M300S, N436Y, E441K
light: not shown
notes: human IgG1

Kd [5]: 180 nM
Kd [6]: 990 nM
B16: IL6R-BP203/IL6R-L (antibody, human IgG1, kappa, name in EU numbering)
heavy: B1 heavy with G239D, P273G, M300S, A332R
light: not shown
notes: as for B4

Relative FcgRIIaR-binding Activity [3]: 44.4
Relative FcgRIIb-binding Activity [4]: 38.3
B18: IL6R-PD035/IL6R-L (antibody, human IgG1, kappa)
heavy: B1 heavy with L236N, M254Y, M300S, N436Y, E441K
light: not shown
notes: human IgG1

Relative FcgRIIaR-binding Activity [3]: 67.2
Relative FcgRIIb-binding Activity [4]: 37.2
B19: IL6R-PD026/IL6R-L (antibody, human IgG1, kappa)
heavy: B1 heavy with L236A, M254Y, M300S, N436Y, E441K
light: not shown
notes: human IgG1

Relative FcgRIIaR-binding Activity [3]: 37.7
Relative FcgRIIb-binding Activity [4]: 7.9
B20: IL6R-PD044/IL6R-L (antibody, human IgG1, kappa)
heavy: B1 heavy with L237A, M254Y, M300S, N436Y, E441K
light: not shown
notes: human IgG1
